The series deals with the molecule itself. Put plainly: cryo-EM structure; inactive PhK holoenzyme, dephosphorylated, with 4 mM EGTA and excess calmodulin; 25 mM HEPES pH 6.8, 150 mM NaCl, 2 mM DTT; subunits co-expressed and purified as a complex.

B1: human muscle phosphorylase kinase (PhK) β-subunit (natural protein, UniProt Q93100 1-1093, looked up)
chain: MAGAAGLTAEVSWKVLERRARTKRSGSVYEPLKSINLPRPDNETLWDKLDHYYRIVKSTLLLYQSPTTGLFPTKTCGGDQKAKIQDSLYCAAGAWALALAYRRIDDDKGRTHELEHSAIKCMRGILYCYMRQADKVQQFKQDPRPTTCLHSVFNVHTGDELLSYEEYGHLQINAVSLYLLYLVEMISSGLQIIYNTDEVSFIQNLVFCVERVYRVPDFGVWERGSKYNNGSTELHSSSVGLAKAALEAINGFNLFGNQGCSWSVIFVDLDAHNRNRQTLCSLLPRESRSHNTDAALLPCISYPAFALDDEVLFSQTLDKVVRKLKGKYGFKRFLRDGYRTSLEDPNRCYYKPAEIKLFDGIECEFPIFFLYMMIDGVFRGNPKQVQEYQDLLTPVLHHTTEGYPVVPKYYYVPADFVEYEKNNPGSQKRFPSNCGRDGKLFLWGQALYIIAKLLADELISPKDIDPVQRYVPLKDQRNVSMRFSNQGPLENDLVVHVALIAESQRLQVFLNTYGIQTQTPQQVEPIQIWPQQELVKAYLQLGINEKLGLSGRPDRPIGCLGTSKIYRILGKTVVCYPIIFDLSDFYMSQDVFLLIDDIKNALQFIKQYWKMHGRPLFLVLIREDNIRGSRFNPILDMLAALKKGIIGGVKVHVDRLQTLISGAVVEQLDFLRISDTEELPEFKSFEELEPPKHSKVKRQSSTPSAPELGQQPDVNISEWKDKPTHEILQKLNDCSCLASQAILLGILLKREGPNFITKEGTVSDHIERVYRRAGSQKLWLAVRYGAAFTQKFSSSIAPHITTFLVHGKQVTLGAFGHEEEVISNPLSPRVIQNIIYYKCNTHDEREAVIQQELVIHIGWIISNNPELFSGMLKIRIGWIIHAMEYELQIRGGDKPALDLYQLSPSEVKQLLLDILQPQQNGRCWLNRRQIDGSLNRTPTGFYDRVWQILERTPNGIIVAGKHLPQQPTLSDMTMYEMNFSLLVEDTLGNIDQPQYRQIVVELLMVVSIVLERNPELEFQDKVDLDRLVKEAFNEFQKDQSRLKEIEKQDDMTSFYNTPPLGKRGTCSYLTKAVMNLLLEGEVKPNNDDPCLIS
modifications: farnesyl group on Cys1090 (mass spectrometry; density in the cryo-EM maps); treated with λ-phosphatase
notes: phosphorylase kinase β-subunit, human, full length; domains D1-D5; Forms the central β4 homotetramer of the hexadecamer
Usually stoichiometry N stands for a count of units in the complex or per binding partner. As to B1, the “stoichiometry N” value was determined as 4.

(Values after PMC10978961, “Architecture and activation of human muscle phosphorylase kinase” (Nature Communications, 2024).)
